Patent US20220172420A1 (Daiichi Sankyo, published 2022)

B1: anti-HER3 human antibody U1-59 (antibody, human IgG1, kappa, V domains shown)
VH: QVQLQQWGAGLLKPSETLSLTCAVYGGSFSGYYWSWIRQPPGKGLEWIGEINHSGSTNYNPSLKSRVTISVETSKNQFSLKLSSVTAADTAVYYCARDKWTWYFDLWGRGTLVTVSS
VL: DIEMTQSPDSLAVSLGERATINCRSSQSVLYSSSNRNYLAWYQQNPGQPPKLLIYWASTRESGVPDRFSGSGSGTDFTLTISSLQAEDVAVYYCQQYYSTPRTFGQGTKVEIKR
notes: also called non-conjugated anti-HER3 antibody U1-59
B2: Antibody-drug conjugate (3) (antibody, human IgG1, kappa, V domains shown)
VH: QVQLQQWGAGLLKPSETLSLTCAVYGGSFSGYYWSWIRQPPGKGLEWIGEINHSGSTNYNPSLKSRVTISVETSKNQFSLKLSSVTAADTAVYYCARDKWTWYFDLWGRGTLVTVSS
VL: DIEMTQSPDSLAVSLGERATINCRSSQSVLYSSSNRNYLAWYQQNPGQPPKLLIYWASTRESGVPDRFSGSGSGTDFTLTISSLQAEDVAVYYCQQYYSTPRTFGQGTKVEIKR
modifications: may carry the same drug-linker on a cysteine (L chain bound to one drug molecule); position not stated; exatecan drug-linker -(Succinimid-3-yl-N)-CH2CH2CH2CH2CH2-C(=O)-GGFG-NH-CH2CH2CH2-C(=O)-(NH-DX), joined by thioether bonds to cysteines freed by reducing the hinge disulfide bonds; average 4.9 drug molecules per antibody (UV method); positions not given
notes: also called ADC (3)
B3: Antibody-drug conjugate (13) (antibody, human IgG1, kappa, V domains shown)
VH: QVQLQQWGAGLLKPSETLSLTCAVYGGSFSGYYWSWIRQPPGKGLEWIGEINHSGSTNYNPSLKSRVTISVETSKNQFSLKLSSVTAADTAVYYCARDKWTWYFDLWGRGTLVTVSS
VL: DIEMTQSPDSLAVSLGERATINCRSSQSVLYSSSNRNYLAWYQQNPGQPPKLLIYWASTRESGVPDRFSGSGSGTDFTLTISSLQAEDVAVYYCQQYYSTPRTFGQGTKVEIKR
modifications: may carry the same drug-linker on a cysteine (L chain bound to one drug molecule); position not stated; exatecan drug-linker -(Succinimid-3-yl-N)-CH2CH2CH2CH2CH2-C(=O)-GGFG-NH-CH2-O-CH2-C(=O)-(NH-DX), joined by thioether bonds to cysteines freed by reducing the hinge disulfide bonds; average 6.2 (procedure E) or 7.0 (procedure F) drug molecules per antibody; positions not given
notes: also called ADC (13)

Each binder was assayed against T1, human epidermal growth factor receptor 3 (HER3) (human, UniProt P21860 20-1342) (assay: flow cytometry on HCC1569 cells, PE-labelled anti-human secondary antibody, one-site specific binding fit).
T1 construct: whole, on cells; The target is the endogenous HER3 of the cell lines used; also called ErbB3; HER3 protein
Procedure: A human breast cancer cell line HCC1569 (CRL-2330) from ATCC was cultured in an RPMI1640 medium (purchased from Invitrogen Corp., containing 10% […] (manufactured by Invitrogen Corp.) and 2 mM L-glutamine (manufactured by Invitrogen Corp.)). The cells were dissociated from the culture plate using ACCUTASE® SOLUTION (Millipore Corp., SCR005) or EDTA (5 mM, phosphate buffered saline (PBS, 137 mM sodium chloride, 2.7 mM potassium chloride, 1.47 mM potassium dihydrogen phosphate, and 10.5 mM disodium hydrogen phosphate)), and the number of living cells was measured by trypan blue treatment.
The cells of each group were reacted with a primary antibody dilution for 45 minutes on ice and then washed with a FACS buffer. Further, 100 uL of a FACS buffer or a reaction solution of a secondary antibody diluted 1/100 (phycoerythrin (PE)-coupled anti human antibody, Dianova GmbH #709-116-149) was added thereto. The cells were treated for 45 minutes on ice in the dark and then washed with a FACS buffer, and dead cells were excluded using a FACS buffer or a FACS buffer supplemented with 7-aminoactinomycin D (7AAD, Sigma-Aldrich Co. LLC, #A9400, 1.1 ug/mL).
The equilibrium binding affinity KD and the maximum binding strength Bmax were calculated using GraphPad Prism software.

Row | Binder | Bmax | Kd [nM]
1 | B1 | 31800 | 1.67
2 | B2 | 28900 | 1.65
3 | B3 | 28400 | 2.76
